Test system: myeloid progenitors derived from mouse embryonic stem cells (D3 ES cells) on microcarriers
Assay: mESC-based cell assay for regenerative drugs: conversion of myeloid progenitors to macrophage (DQ-ovalbumin)
Conditions: 48 h, triplicate, basal level 1%
Protocol: A screen was performed to identify regenerative drugs capable of stimulating the myeloid lineages of the haematopoietic system. The screen was performed by using a series of culture steps to differentiate mouse embryonic stem cells (mESC) seeded on microcarriers into progenitors of the myeloid lineages, and subsequently subjecting these to culture conditions in the presence or absence of the lineage specific haematopoietic growth factors TPO, M-CSF and IL-5, or the control compound Vitamin C which is reported to affect cell survival but is not a haematopoietic growth factor. After 48 hours the effect on myeloid cell differentiation was assessed using the appearance of macrophages as a surrogate assay. This screen identified TPO and M-CSF as haematopoietic regenerative drugs capable of stimulating the myeloid lineage.
On the day preceding day 1 of the experiment, approximately 1.5×10^4 biotinylated micocarriers equilibrated in medium A (IMDM (Gibco), 15% KOSR, 1% NEAA, 0.5% pen/strep, 0.1 mM β-ME, 1000 U/ml LIF and 1.5×10^−4 M, 1-thioglycerol (MTG; Sigma)) were added to 100 ml of medium A containing approximately 4.5×10^6 ES cells, split into three equal aliquots placed in wells of a 100 mm square petri dish (Bibby Sterilin) and incubated overnight.
In order to prepare myeloid progenitors a two step method was employed. Beads seeded with mESC as described above were incubated in IMDM containing […] retinoic acid for 72 h. The beads were then washed in PBS and transferred to Stemline™ Haematopoietic Expansion Medium (Sigma) containing 40 ng/ml SCF, 2.5 ng TGFβ1, 5 ng/ml BMP2 and 20 ng/ml TPO and incubated for 48 h:
Beads blearing myeloid progenitors prepared as described above were mixed, washed in PBS and transferred to the Test Growth Medium (Stemline™Haematopoietic Expansion Medium (Sigma) supplemented with 30 ng/ml IL-3 and 20 ng/ml IL-6). Equal aliquots of approximately 100 beads were dispensed into the wells of a 48 well plate and incubated in the presence or absence of 50 μg/ml Vitamin C, 10 ng/ml IL-5, 20 ng/ml TPO and 20 ng/ml M-CSF. The screen was carried out in triplicate in wells of separate plates placed in the same incubator.
After 48 h, 1 mg of the macrophage assay reagent DQ-ovalbumin (Molecular Probes) was made up in 0.4 ml PBS and added to each well at a dilution of 1:100. Following incubation for at least 4 h, the medium was aspirated and replaced with PBS. The samples were examined on a Nikon TE2000-S inverted epifluorescent microscope using a-FITC filter set to quantitate microcarriers bearing large, round cells internally labelled with green fluorescence.
The results of the screen are reported as the average number (per cent) of microcarriers that were decorated with macrophage. […]

[1] = 20 ng/ml TPO or M-CSF in Test Growth Medium (IL-3, IL-6)

Molecule	average conversion to macrophage (average number (per cent) of microcarriers decorated with macrophage) [1] [%]	also measured
O=C1O[C@H]([C@@H](O)CO)C(O)=C1O [Vitamin C, Ascorbic acid, reference compound]		average conversion to macrophage (average number (per cent) of microcarriers decorated with macrophage) (50 μg/ml Vitamin C in Test Growth Medium (IL-3, IL-6)): 0%
M-CSF: murine macrophage colony stimulating factor (R&D Systems), haematopoietic growth factor (protein, UniProt P07141 33-552, looked up) Macrophage colony-stimulating …: KEVSEHCSHMIGNGHLKVLQQLIDSQMETSCQIAFEFVDQEQLDDPVCYLKKAFFLVQDIIDETMRFKDNTPNANATERLQELSNNLNSCFTKDYEEQNKACVRTFHETPLQLLEKIKNFFNETKNLLEKDWNIFTKNCNNSFAKCSSRDVVTKPDCNCLYPKATPSSDPASASPHQPPAPSMAPLAGLAWDDSQRTEGSSLLPSELPLRIEDPGSAKQRPPRSTCQTLESTEQPNHGDRLTEDSQPHPSAGGPVPGVEDILESSLGTNWVLEEASGEASEGFLTQEAKFSPSTPVGGSIQAETDRPRALSASPFPKSTEDQKPVDITDRPLTEVNPMRPIGQTQNNTPEKTDGTSTLREDHQEPGSPHIATPNPQRVSNSATPVAQLLLPKSHSWGIVLPLGELEGKRSTRDRRSPAELEGGSASEGAARPVARFNSIPLTDTGHVEQHEGSSDPQIPESVFHLLVPGIILVLLTVGGLLFYKWKWRSHRDPQTLDSSVGRPEDSSLTQDEDRQVELPV	6	
IL-5: mouse interleukin 5 (R&D Systems), haematopoietic growth factor (protein, UniProt P04401 21-133, looked up) Interleukin-5: MEIPMSTVVKETLTQLSAHRALLTSNETMRLPVPTHKNHQLCIGEIFQGLDILKNQTVRGGTVEMLFQNLSLIKKYIDRQKEKCGEERRRTRQFLDYLQEFLGVMSTEWAMEG		average conversion to macrophage (average number (per cent) of microcarriers decorated with macrophage) (10 ng/ml IL-5 in Test Growth Medium (IL-3, IL-6)): 0%
TPO: murine thrombopoietin (R&D Systems), haematopoietic growth factor (protein, UniProt P40226 22-356, looked up) Thrombopoietin: SPVAPACDPRLLNKLLRDSHLLHSRLSQCPDVDPLSIPVLLPAVDFSLGEWKTQTEQSKAQDILGAVSLLLEGVMAARGQLEPSCLSSLLGQLSGQVRLLLGALQGLLGTQLPLQGRTTAHKDPNALFLSLQQLLRGKVRFLLLVEGPTLCVRRTLPTTAVPSSTSQLLTLNKFPNRTSGLLETNFSVTARTAGPGLLSRLQGFRVKITPGQLNQTSRSPVQISGYLNRTHGPVNGTHGLFAGTSLQTLEASDISPGAFNKGSLAFNLQGGLPPSPSLAPDGHTPFPPSPALPTTHGSPPQLHPLFPDPSTTMPNSTAPHPVTMYPHPRNLSQET	6	

— US20080280300A1, “Method” (PLASTICELL LIMITED, priority 2005, published 2008)
